From patent publication US20250032630A1, “B7H4 ANTIBODY-DRUG CONJUGATE AND USE THEREOF” (Duality Biologics (Suzhou) Co., Ltd., priority 2022, published 2025)
Where a chain is given by its changes, count along the chain named.

Legend:
mouse B7H4 = target: T1, mouse B7H4 (mouse, UniProt Q7TSP5 25-257); assay: flow cytometry on mouse B7H4-transfected HEK293T cells, PE anti-human IgG Fc secondary antibody
T1 construct: whole, on cells; also called Mouse B7H4-293T
T1 sequence (looked up): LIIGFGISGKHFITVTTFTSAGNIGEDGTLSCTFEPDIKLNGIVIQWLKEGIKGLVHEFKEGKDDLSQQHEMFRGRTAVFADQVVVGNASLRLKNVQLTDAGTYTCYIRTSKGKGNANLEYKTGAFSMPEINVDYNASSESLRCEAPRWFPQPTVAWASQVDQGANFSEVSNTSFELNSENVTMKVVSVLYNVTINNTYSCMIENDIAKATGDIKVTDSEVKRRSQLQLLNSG

human B7H4 [1] = target: T2, human B7H4 (human, UniProt Q7Z7D3 25-282); assay: cell-based or functional assay
T2 sequence (looked up): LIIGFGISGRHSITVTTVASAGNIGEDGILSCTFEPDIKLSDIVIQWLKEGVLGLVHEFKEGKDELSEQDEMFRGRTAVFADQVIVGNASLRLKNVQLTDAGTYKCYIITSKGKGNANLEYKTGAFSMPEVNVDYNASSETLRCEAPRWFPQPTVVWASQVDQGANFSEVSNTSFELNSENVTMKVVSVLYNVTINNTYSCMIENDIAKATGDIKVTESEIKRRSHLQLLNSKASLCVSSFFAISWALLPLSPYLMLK

cynomolgus monkey B7H4 = target: T3, cynomolgus monkey B7H4 (cynomolgus monkey, UniProt A0A2K5U6P5 25-282); assay: flow cytometry on cynomolgus monkey B7H4-transfected HEK293T cells, PE anti-human IgG Fc secondary antibody
T3 construct: whole, on cells; also called Monkey B7H4-293T
T3 sequence: T2 sequence (looked up) with L53I, F242L, S252A

human B7H4 [2] = target: T2, human B7H4; assay: flow cytometry on human B7H4-transfected HEK293T cells, PE anti-human IgG Fc secondary antibody
human PD-L1 (B7-H1) = target: T4, human PD-L1 (B7-H1) (human, UniProt Q9NZQ7 19-290); assay: flow cytometry on HEK293T cells stably expressing the human protein, one concentration
T4 construct: whole, on cells; also called CD274
T4 sequence (Q9NZQ7 19-290): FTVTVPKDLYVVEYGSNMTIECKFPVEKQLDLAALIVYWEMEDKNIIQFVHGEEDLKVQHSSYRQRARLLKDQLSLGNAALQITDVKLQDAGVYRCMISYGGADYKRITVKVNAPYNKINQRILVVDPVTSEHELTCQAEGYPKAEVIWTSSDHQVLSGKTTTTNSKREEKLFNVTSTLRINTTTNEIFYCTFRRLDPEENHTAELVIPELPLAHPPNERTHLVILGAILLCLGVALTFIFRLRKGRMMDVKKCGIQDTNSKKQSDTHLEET

human B7H4 [3] = target: T2, human B7H4; assay: cell-based or functional assay; remark: listed apart in the source

B1: antibody-drug conjugate DB1001-X2 (antibody, DAR 5.4, V domains shown)
VH: QVQLVESGGGVVQPGRSLRLSCAASGFTFRSFGMHWVRQAPGKGLEWVAVISYDASNEYYADSVKGRFIISRDNSKDTLYLQMNSLRAGDTAVYYCAKGGALRWYFAYWGQGTLVTVSS
VL: EIVMTQSPATLSVSPGERATLSCRASQSISSNLGWYQQKPGQAPRLLIYGASTRATGIPARFSGSGSGTEFTLTISSLQSEDFAVYYCQQYRSWPPLTFGGGTKVEIKR
modifications: linker-cytotoxin X2 (payload P-III-30) coupled after TCEP reduction of the antibody; drug-to-antibody ratio (DAR) of 5.4; conjugation residues not stated
notes: also called anti-B7H4 ADC DB1001-X2
- binding result (mouse B7H4): no binding (tested: highest concentration 100 nM)
- Fold over blank control, endocytosis by MDA-MB-468 cells (human B7H4 [1]): 2.4 fold
- EC50 (cynomolgus monkey B7H4): 5.36 nM
- EC50 (human B7H4 [2]): 2.18 nM
- binding result (human PD-L1 (B7-H1)): no binding (tested: 100 nM or 300 nM)
- IC50 (nM), in vitro proliferation inhibition of MDA-MB-468 cells (CTG, 7 days) (human B7H4 [3]): 50.7 nM
